B1: CDKN1A (parent)
chain: GRKRRQTSMTDFYHSKRRLIFSKR
B2: SLC6A17 (parent)
chain: KAVEEELDAEDRPAWNSKLQYILA

Variants of: B1
Test: protein stability index of a GFP-peptide fusion (GPS, HEK-293T) (PSI 1-6); higher = more stable
Conditions: c terminus: a fixed tail appended
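Note: lentivirally expressed fusions sorted by FACS into six bins by GFP to DsRed ratio, PSI derived from sequencing read proportions per bin multiplied by bin number.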

Protein stability index: each site, then its substitutions
G1: V 2.06; P 3.63; L 2.86; C 3.45; Y 2.99; M 2.88; A 2.81; F 2.85; R 3.87; T 2.06; D 3.06; N 2.55; H 3.16; Q 3.03; E 3.02; I 2.94; S 3.84; K 3.34; W 3.87
T7: D 2.1; K 3.09; E 2.22; C 2.87; H 2.67; I 2.38; L 2.79; A 1.97
R2: A 2.05; H 2.33; N 2.74; L 2.6; C 3.93; G 3.19; V 3.22; Y 2.22; W 2.53; S 3.05; F 3.25; D 2.78; K 3.08; M 3.79; E 4.5; T 2.8
K3: L 3.18; N 2.73; E 2.19; P 2.16; T 2.5; V 2.83; M 2.76; Q 2.98; Y 5.28; W 2.56; H 3.57; S 3.96; C 3.54; I 2.76; D 3.2; A 3.12; F 2.4
Q6: T 3.34; H 3.62; K 2.55; R 2.4; S 2.25; E 2.73; W 2.47; I 2.79; G 2.76; M 2.04; Y 2.67; A 2.06; V 2.38; C 3.21; D 2.1
R4: K 3.46; Y 3.36; E 3.62; G 3.58; T 3.95; A 2.39; H 2.98; W 3.56; P 3.12; N 4.63; M 2.77; S 2.85; C 2.73; D 3.24
R5: H 3.17; Q 2.87; T 3.64; L 3.53; F 2.64; Y 3.17; G 2.4; N 2.74; A 2.74; S 2.44; K 2.57; I 3.03

Variants of: B2
Test: as above
Conditions: c terminus: a fixed tail appended

Protein stability index, by site and new letter:
D11: T 2.65; L 1.79; W 2.16; Y 1.42; G 3.55; S 1.98; Q 2.12; I 2.54; N 2.28; A 3.08; V 2; K 2.67; C 1.99
E4: L 3.26; C 2.31; V 2.03; N 2.63; S 2.21; A 2.79; G 2.12; R 2.98; W 1.4; H 2.24; K 2.52
L23: E 4.91; T 3.91; F 3.03; N 4.18; R 4.42; I 2.64; Q 3.82
N16: A 2.25; H 2.83; D 3.45; T 2.07; Q 2.1; R 2.75; C 2.08; Y 2.09; W 2.05; F 2.14; L 2.06
R12: T 3.82; C 2.8; F 1.76; Y 2.2; V 2.54; A 3.54; N 2.97; G 2.32
A14: D 3.38; E 3.08; I 2.5; L 1.99; G 2.35; N 2.2
K1: L 2.08; A 2.65; N 3.17; M 2.77; F 2.71; Q 2.82; V 3.64; S 3.24; Y 2.05; R 2.34; E 3.19
V3: M 2.19; C 2.77; E 2.75; Q 2.91; F 2.29; Y 2.2; R 3.14; G 2.79; I 2.41; W 1.7
Y21: M 3.4; R 2.8; K 3.67; L 2.83
A9: Q 2.44; W 2.06; G 2.24; L 2.33; D 2.38; R 2.69; F 1.95; P 2.54; K 3.15; N 2.83; H 2.41; I 2.02
I22: M 1.79; V 3.04; D 4.86; C 3.13; P 4.44; R 4.15; A 3.8
S17: I 1.83; Y 2.16; D 3.17; R 3.4; C 1.99; H 2.23; P 2.97; K 2.19; F 2.5
W15: M 3.74; D 3.94; I 3.69; N 4.13; P 3.68; E 4.65; V 2.2; C 3.64; S 3.92; H 4.06; L 2.52
E5: L 2.14; D 1.75; Y 1.66; V 2.9; T 2.33; R 2.04; K 2.08; P 2.7; M 2.05
A24: S 2.82; R 3.27; I 2.23; H 2.15; C 2.46; F 2.73; M 2.06; N 3.48; P 3.25; E 2.63; D 3.55
L7: Q 2.53; C 3.5; V 2.9; E 3.21; A 3.74; M 2.98; K 2.85; H 3.09; R 3.53; D 3.48; Y 2.51; S 3.61; N 3.42
L19: I 2.52; K 3.99; E 4.27; H 3.69; N 4.2; R 3.63; A 3.8; Q 3.92; T 3.83; Y 2.52
Q20: D 3.56; E 2.89; T 2.25; H 2.53; N 2.9; Y 2.4; R 3.39; L 1.88; M 2.16; S 2.71
D8: P 3.77; T 2.57; I 2.57; A 3.21; L 1.77; K 2.93; G 2.07; W 1.83
P13: Y 2.65; E 2.41; D 2.72; M 2.79; L 1.85; H 2.21; N 2.31; A 1.54; R 2.44; C 2.28
K18: W 2.53; C 3.19; D 4; Q 3.22; Y 3.15; T 3.05; N 4.01; F 2.17; M 2.27; P 3.77
A2: W 1.49; G 2.81; L 1.55; H 2.24; M 2.43; I 2.19; S 2.81; Q 3; C 2.21
E10: N 2.57; T 2.44; M 1.47; H 1.84; Y 1.93; L 2.15; C 2.23; K 2.5; P 2.28; I 1.86
E6: G 2.27; M 1.5; W 1.16; Y 2.65; F 1.73; D 3.44; A 1.86; R 2.79; C 2.07; I 1.47; N 2.45; V 2.13; P 2.53

From the supplement of paper PMC10567573
